Experiment in all cases: SEC
Background: In gel filtration, larger molecules generally elute earlier.

In experiment [1] the target is HIV-1_(ITM1_4) gp140 Env trimer (HIV-1 (isolate ITM1_4, clade A)).
The target of experiment [2] is HIV-1_(YU2) gp140 Env trimer (HIV-1 (isolate YU2)).
The target in experiment [3] is HIV-1_(UG37) gp140 Env trimer (HIV-1 (isolate UG37, clade A)).
In experiment [4] the target is HIV-1_(NIBSC40-9) gp140 Env trimer (HIV-1 (isolate NIBSC 40-9, clade A)).
Experiment [5] concerns the target SIV_(mac239) gp140 Env trimer (SIV_(mac239)).

With “HIV-1_(ITM1_4) gp140 Env trimer (domain or fragment)”, the stoichiometry N in experiment [1] worked out at 3.

As to “HIV-1_(YU2) gp140 Env trimer (domain or fragment)”, the stoichiometry N in experiment [2] worked out at 3.

Consider “HIV-1_(UG37) gp140 Env trimer (domain or fragment)”, for which the stoichiometry N in experiment [3] amounted to 3.

Turning to “HIV-1_(NIBSC40-9) gp140 Env trimer (domain or fragment)”, in experiment [4], the stoichiometry N came to 3.

In experiment [5], “SIV_(mac239) gp140 Env trimer (domain or fragment)” showed a stoichiometry N of 3.

What is called stoichiometry N is the number of molecules, sites or subunits per partner or assembly.
